Three proteins from article PMC3017832, “Molecular analysis of phosphomannomutase (PMM) genes reveals a unique PMM duplication event in diverse Triticeae species and the main PMM isozymes in bread wheat tissues” (BMC Plant Biology, 2010) can be followed below.

As usually defined, the Km is the substrate concentration at which the rate is half of its maximum.

Holding throughout (experiment): spectrophotometric PMM assay (as in earlier work)
Holding throughout (assay type): biochemical, Triticum aestivum
What all share (details): average of three experiments; temperature and pH not given

Substrate in series [1]: O=P(O)(O)O[C@H]1O[C@H](CO)[C@@H](O)[C@H](O)[C@@H]1O
The text has this:
spectrophotometric PMM assay (as in earlier work) on TaPMM-D2 | The average Km (mM, mannose-1-phosphate) values calculated for recombinant A1, D1 and D2 proteins

Substrate in series [2]: O=P(O)(O)O[C@H]1O[C@H](CO)[C@@H](O)[C@H](O)[C@@H]1O
From the text: spectrophotometric PMM assay (as in earlier work) on TaPMM-A1 | The average Km (mM, mannose-1-phosphate) values calculated for recombinant A1, D1 and D2 proteins
The source holds these as a separate data set.

Substrate in series [3]: O=P(O)(O)O[C@H]1O[C@H](CO)[C@@H](O)[C@H](O)[C@@H]1O
From the text:
spectrophotometric PMM assay (as in earlier work) on TaPMM-D1 | The average Km (mM, mannose-1-phosphate) values calculated for recombinant A1, D1 and D2 proteins
The source holds these as a separate data set.

B1: TaPMM-D2 (Triticum aestivum) (protein)
chain: MVASAARKNAGVLALFDVDGTLTAPRKEVTPEMLEFMKRLRENVTVGVVGGSDLVKISEQLGKSVITDYDYVFSENGLVAHKDGKLIGTQSLKTYLGDDQLKEFINFTLHYIADLDIPIKRGTFIEFRSGMINVSPIGRNCSQEERDDFEKYDKVHNVRPKMVSMLREKFAHLNLTFSIGGQISFDVFPHGWDKTYCLRYLDEFKEIHFFGDKTYKGGNDHEIFESDRTVGHTVTSPDDTVQQCRSIFLSK
Take B1: the Km in series [1] came to 480 ± 20 µM.

B2: TaPMM-A1 (Triticum aestivum) (protein)
chain: MAAARKDAGVLALFDVDGTLTAPRKEVTPEMLEFMKRLRENVTVGVVGGSDLVKISEQLGKSVITDYDYVFSENGLVAHKDGKLIGTQSLKTYLGDDQLKEFINFTLHYIADLDIPIKRGTFIEFRSGMINVSPIGRNCSQEERDDFEKYDKVHNVRPKMVSVLREKFAHLNLTFSIGGQISFDVFPQGWDKTYCLRYLEEFKEIHFFGDKTYKGGNDHEIFESDRTVGHTVTSPNDTVQQCKSIFLSE
Turning to B2, the Michaelis constant (Km) in series [2] turned out to be 460 ± 20 µM.

B3: TaPMM-D1 (Triticum aestivum) (protein)
chain: MAAAAAARKTAGVLALFDVDGTLTAPRKEVTPEMLEFMKRLRENVTVGVVGGSDLVKISEQLGKSVITDYDYVFSENGLVAHKDGKLIGTQSLKTYLGDDQLKEFINFTLHYIADLDIPIKRGTFIEFRSGMINVSPIGRNCSQEERDDFEKYDKVHNVRPKMVSVLREKFAHLNLTFSIGGQISFDVFPQGWDKTYCLRYLEEFKEIHFFGDKTYKGGNDHEIFESERTVGHTVTSPNDTVQQCKSIFLSE
Consider B3, for which, in series [3], the Km was 400 ± 20 µM.
